Measured values reported in the DeepSol protein solubility set.

Test: soluble on expression in E. coli; label from the status in PepcDB or PDB records

Sequence | soluble on expression in E. coli
MGSSHHHHHHGKTIFVIVPTNEEQVAFLEALAKQDELNFDWQNPPTEPGQPVVILIPSDMVEWFLEMLKAKGIPFTVYVEEGGSENLYFQGGGGGGYCAPTGRGADPKFYTPDAARKRDEQDKSYPVPKKLLKVRFLSDVGNTMPIAFVPLQREVEVLVGEPALAFYSAYNRSNRTLLGVSSYTIAPPEVTNYLNKIQCFCFEEQRFKPHELVEMPVFFYIDRDFLNDSMVNWLDEVIVNYTFFNLEKTKDYIFRPNAR | not soluble
KVKELNLHELCAVCLEDFKPRDELGICPCKHAFHRKCLIKWLEVRKVCPLCNMPVLQLAQL | soluble
MNSPLAPVGVFDSGVGGLTVARAIIDQLPDEDIVYVGDTGNGPYGPLTIPEIRAHALAIGDDLVGRGVKALVIACNSASSACLRDARERYQVPVVEVILPAVRRAVAATRNGRIGVIGTRATITSHAYQDAFAAARDTEITAVACPRFVDFVERGVTSGRQVLGLAQGYLEPLQRAEVDTLVLGCTHYPLLSGLIQLAMGENVTLVSSAEETAKEVVRVLTEIDLLRPHDAPPATRIFEATGDPEAFTKLAARFLGPVLGGVQPVHPSRIH | not soluble
MGSDKIHHHHHHMIDFIYSFQNMEQINSSSWHLPTQYFLNRNNKMEATNTHDIQGLSARKTVEAYLAAFAEGKLDDIVSLLDDNVVWHIDGEPGVSTVGLLQGPGRVRRWLQNFPQNFRPLDFSISDIIAHNDSVLVLGRFRHTVLSTGNAVGSDMIIHFKVSGSKITRYQMFEDSALLSRAFDASDEWQLQQVRINGTLYRYRDIGEGPTLIFAHGLFANHEIFSAQFQILSKSYRCIVLDMPGHGLSEYDPAGWKLDDLSRDLALMIQELSLGKVTFIGQSQGGMVAIRLAAHYPQLVSGLVLIGTSARAEFPERLQNWHRQRDILLTGSEHAREDLFKKIQSHINNEAWLQNNQGEAARERRIMLSHNRTGLALALDAAVFERGDITELLADISAPTLIICGEQDTATPVELSQEIATLIADASILILAKTGHHPPTEAAQAVTAAIAEFLKLECSNHH | not soluble
MKSYTKHTHTNRLASESSPYLLQHAHNPVEWFPWGEEALQKAKAEDKPILVSIGYSACHWCHVMEHECFEKEEVAAVMNDLFINIKIDREERPDLDQIYMDAVSAMGLRGGWPLNVFLTPDAKPFYGGTYFPQDHWLNLLGQISNAYLNHREDILKSAESFTESLNQSDVF | not soluble
MPGYAQYRSFSEDLSMNMEEIVALSVKHNVSDLHLCSAWPARWRIRGRMEAAPFDAPDVEELLREWLDDDQRAILLENGQLDFAVSLAENQRLRGSAFAQRQGISLALRLLPSHCPQLEQLGAPPVLPELLKSENGLILVTGATGSGKSTTLAAMVGYLNQHADAHILTLEDPVEYLYASQRCLIQQREIGLHCMTFASGLRAALREDPDVILLGELRDSETIRLALTAAETGHLVLATLHTRGAAQAVERLVDSFPAQEKDPVRNQLAGSLRAVLSQKLEVDKQEGRVALFELLINTPAVGNLIREGKTHQLPHVIQTGQKVGMLTFQQSYQQRVGEGRL | not soluble
MKKVSVLIVAKNEANHIQECIESCRFDKEVIVIDDYSTDNTAEIAEGLGAKVFRRHLNGDFGAQKTFAIEQAGGEWVFLIDADERCTPELSDEISKIVQTGDYAAYFVERRNLFPNHPATHGAMRPDSVCRLMPKKDSSVQGKVHETVQTPYPKRRLKHFMYHYTYDNWEQYFNKFNKYTSISAEKYREQGKPVRFVRDIILRPIWGFFKIYILNKGFLDGKMGWIMSVNHSYYTMIKYVKLYYLYKSGGKF | not soluble
MDLTELFAFLSIPSVSTDPARREDVRRAALWLEERLKARGFRTELHETPLHPILYAERFVDEKAPTVLVYGHYDVQPPDPLELWESPPFSPVVREGRIYARGAFDDKGQLFAHVLAAEEAPVNLKFLVEGEEEIGSPHLPPFVRANREKLRADVVLVSDGAMFAPHTPTLTYGLRGLCYLEVRLRGARRDLHSGAFGGVAPNPIQALGWLLARLKDEGTGRVLIPGFYERVRPVPEEEKALWPSLDEEALKRELGVEILPGEEGYAPLERLWARPTLDPNGIWGGYQGEGSKTVIPAEAGMKLSMRLVPDQDPEEVADQAEAYLKAVCPPGYALEVRRLHGGRPVLTDPFSPPMRLMARALEEVWGRPPVYTREGGTIPVVAELKETLGAPIVLLGLGLPDDNLHAPNEKLDLVNLEKGVEVIRRFHRLLAG | soluble
MSDKPDSQVFCPNCNERLQKCLVQQNYAIIICPSLVCGYPFNQREVLENLTYVDDNDVLKVAKKRLSSRSKP | soluble
MQKINIDRHATAQINMLANKLMLKSSTAYTQKFGIGMTEWRIISVLSSASDCSVQKISDILGLDKAAVSRTVKKLEEKKYIEVNGHSEDKRTYAINLTEMGQELYEVASDFAIEREKQLLEEFEEAEKDQLFILLKKLRNKVDQM | soluble
MKRSIKHIYLLSDATGETVERVVRAALSQFRDVEARFHRVTRIRSREDVIWALEEVLREPGMVVYTLVDTELAQLLRDEAEAHGLDAIDLISPLLFKLSDFFGEAPQKEPGLLHQINSEYHKRVDAVDFTVKHDDGQDPRGLAKADFILVGVSRSSKTPLSMYLAHKGYKVANVPIVKGIDPPPELYKVDQKRVVGLIIDAERLVQIRTARLRNLGQMPKGSYADYERIEEELEFCRRLYRRNPQWLVIDVTKKSVEESAAEIIQKLAGLEHHHHHH | not soluble
MPFVVIITGIPGVGKSTITKLALQRTRAKFKLINFGDLMFEEALKLKLVKHRDEMRKLPLEVQRELQMNAAKKIAEMAKNYPILLDTHATIKTPHGYLLGLPYEVIKILNPNFIVIIEATPSEILGRRLRDLKRDRDVETEEQIQRHQDLNRAAAITYAMHSNALIKIIENHEDKGLEEAVNELVKILDLAVKEYA | soluble
MKEVKVGIGDYAVGKGNGIISTYGLGSCVGITLYDRVTKVGGLLHALLPEAARYGHRGNPAKYVDTGLQLLLKEVIKLGASKFRLEAKLFGGAQMFDNIRSEELKIGEKNVQVAKRELRKLGIRLVAEDTGGKGGRTIYLDLSTGKVRMRKVTEGKVIEKVY | soluble
MGSDKIHHHHHHMDVFSANQSAQGIVEEAQQANALDHPAAFEIPRSAVIDIKDSISGRTYPLFIKLPKSYRSQPNKRYPVIYLTDSWYSFQIVSGATRFPMNFNKMDEAIIVAISYSEGSRGSSSRNRDYTPSVNPAWKDITGGAAAHRDFIETTVFDYVERHYRAEAGSRIFVGNSFGGLFGTYVLMSKPEMFDSYILGSPSYWWDKGYIFELEKQFRKSAKPVSAKVFIGIGELEKKVNGVGEDMVKEAQAFYDLMQQWSSRPQTKLLIIPEADHQTAFPTTAIHGLQWILGKCPPKGNCLQGNLN | not soluble
MNSEQIYHVDFKQSKRIKSFHYAGGLFQLTSDGVIFVGKDKDNNELPPRWICSSLSVVAKTRDANSGEWGRLLEWVDDDGIKHQWAMPLALLQGDSSDVRRELARLGLTISPSKTARDLLASYIQVFPVEERARCVDKLGWYKEVFVTANEAIGQSLSVAGSVEDWRNSISRLADGNSRLVFAISAAFAPSLANLVGEDSGGFHFRGASSSGKTTALKVAASVWGKPDSYIRLWRSTANGLEGLAALHNDGLLILNELSQMDPKEAGECAYLLANGQGKTRASRCGTARQSMRWSLLFLSAGEESLTSLMAKAGQRCNAGQEIRLADIEADAGAEMGLFEQLHDHINPAAMSLALKEAASQYHGAVGLAWLHKIVKHRAELIALLTNKIQHFVAKVTKPEHSGQIQRVARRFALVAMAGEIATHYELTGWTRGTACNPAEKCFNAWLKDFGEHGNREDRAILSQVRAFFEKEGASRFENENHPNSERLFNRAGFFHTDSEGFRVFMVLSEVYRKEICQGFEPKMVNKVLINAGWIVPGNDGKASQKRRIKGIGIPRCYIFTEKVWSDDYLEHHHHHH | soluble
MWPPQGVPMSTPGSSAGHMPLGAGAASFPGQMNGPPQHPGMQYSGQMQQLPYGQMEGNHAMYDQRIMGQRAAGRPGMMPDYPQMPMGQTPGNTMMRMPVQYPSGPSQMAGHPHMQQMQYGHMMRAPPVSVYGQMNNAQQYAVTAHPNPVPQPYYHPEVRQLYETTAGYIVDRELLAEGHVTPGSNGVEAMLTHDASDFLKVSPQTDVLFSIWPVTKSNDPNIQYEVYINQKSVMNSHMQVKSIFIKDFLISGMNSIHIVYNGPQQMYKYACEFVTRKSVIELRKILIQKRVIEGQQLATQQKQQYMQMANKRQAGFYPVSLNCVLSKKRMFTPAKHHECKKIFDLAQLINANKGMTRYFCQTCNAYFKFEDITADYFLLNFLQSIPAGVNDLIVEKTGVVRSGDVEDVKPKRGKKKTDNDANGNGIKRIKSEIIVKQETFTDMHGRNVPFSPMPMPGSVPPDWTRLQSPSFSMQSPNKVQLGPATPATPGMVFQNPASAGSMLNMSSPRQTMIPGMHPMMPPHDVTMRSGSAPYTPESVKNDKNDELLMHIEGLYVCDVPILENEQLTVRYMDGTKDLCFEDSMVYEFAESPKHQQQIDGPPQTLMAPGSTASSSGSTFTPPFDDIHLGNRPSH | not soluble
MRPCIVIPIYNHKDVIGLTVARLVTHGLPIFIVDDGSDAPTQAVLAALAGQHAGCVTLLRLPVNGGKGAAVMAGLRAARSDGFTHALQIDADGQHDAADVPTFMDAARDHPEAVILGQPVYDATVPKARLYGRYLTHAWVWIETLSFDIRDSMCGFRVYPLALACALIDEVALPTRMDFDIEILVRLHWRRTRFVAIPTRVTYAADGVSHFDVLWDNIRISQSHARLVAGMLVRLPLLLANKARPRQRADQAAAGKAHWWRIAERGSQLGMRLLALSCRLLGTRITALWLYPIVAYFLLTGRAARQASRQYFERLAAASAQDRTPAPGWRSAYRHMIAFAQSGLDKLAAWSGHVSPHRVRFDDPAPFEALMASGRGALVIGAHLGNLEMTRALATRHGQVKVTAVVYIEHARRFNRVLAGAHPEFATHLLEVSDFGPATAMRMQERIDAGELLVIVGDRVPATEMGRTVEATFLGAPARFAQGPYILAHALGCPVYLFFCLKTRQDYTLYFEPFAERIELPRHARATHLATLAQRYASRLEHHCRKAPFQWFNFFDFWARPKKDAHGLEHHHHHH | not soluble
SDLVGVASPEPGTAAAWGPSKCPWAIPQNTISCSLADVMSEQLAKELQLEEEAAVFPEVAVAEGPFITGENIDTSSDLMLAQMLQMEYDREYDAQLRREEKKFNGDSKVSISFENYRKVHPYEDSDSSEDEVDWQDTRDDPYRPAKPVPTPKKGFIGKGKDITTKHDEVVCGRKNTARMENFAPEFQVGDGIGMDLKLSNHVFNALKQHAYSEERRSARLHEKKEHSTAEKAVDPKTRLLMYKMVNSGMLETITGCISTGKESVVFHAYGGSMEDEKEDSKVIPTECAIKVFKTTLNEFKNRDKYIKDDFRFKDRFSKLNPRKIIRMWAEKEMHNLARMQRAGIPCPTVVLLKKHILVMSFIGHDQVPAPKLKEVKLNSEEMKEAYYQTLHLMRQLYHECTLVHADLSEYNMLWHAGKVWLIDVSQSVEPTHPHGLEFLFRDCRNVSQKGGVKEALSERELFNAVSGLNITADNEADFLAEIEALEKMNEDHVQKNGRKAASFLKDDGDPPLLYDE | soluble
METKQSMDYIIKGPGGTTKPIAPKLITVNPLNIIIESNSGQIDKTLELKNIYPCRIAFRVRTNGPTRYTVCPSKGFLSNGEKVAIQITLIDGTKYQSNHQFIVQAMPSPGDFADRKFIWKQPNFLGIFTNTRVKTMRPAQSLPKSNPKSPAKVSTPTDSGMSSPVASSESLVTPSVPSWSKSPSSPIDHGKFAENINDLSVQVKKAIDEKNTRTSEMVSVVNQIKAVEVDLDRQAQLVNELSERVKRGEIQYSNLVMHERSLRVELGRLKNNEAESIGQ | not soluble
MGSSHHHHHHSSGLVPRGSHMNESIVISLGGSVISGDPIDADYMKSFARILEASKYRRVGIVTGGGRTARSYISVLRKLNVNENVLDEIGIYATRMNALSMASLIPGSNPTIPFTVEDAVNLMNTYRFVVMGGTEPGHTTDTVAALLCERSATRTLINVTSVDGVYDMDPHRFANAKRFDRIGYREAIALSTKSSAGAGPNVFMDITALTIAMRSRIRVIVTSRDIDNLEKILKGDRAVSTFIDDDQRS | soluble
